Here are results for 65 variants from PMC12102759 (2025).

First the molecules themselves.
B1: AXIN1 peptide 237-252 (Axin-1), 16-mer library wild type / PP2A B56 (PPP2R5A B56 domain, residues 1-486) (parent complex)
chain 1: YLPTLNEDEEWKADQD
chain 2: not shown
B2: TPTE2 peptide 92-107 (Phosphatidylinositol 3,4,5-trisphosphate 3-phosphatase TPTE2), 16-mer library wild type / TLN1 PTB (TLN1 Phosphotyrosine-binding (PTB) domain, residues 309-401) (parent complex)
chain 1: LADLIFTDSKLYIPLE
chain 2: GVSFFLVKEKMKGKNKLVPRLLGITKECVMRVDEKTKEVIQEWNLTNIKRWAASPKSFTLDFGDYQDGYYSVQTTEGEQIAQLIAGYIDIILK

The first test covers variants of B1. In words: proteomic peptide phage display deep mutational scan (ProP-PD DMS): M13 P8 16-mer library selected against immobilised GST-tagged bait for four days (rounds), NGS of the eluted pools per day and pseudo-replica; bait immobilised on MaxiSorp plates (10 µg), library pre-cleared on GST, 2 h binding at 4 °C, five washes; one round per day, days 1-4; value from days 2 and 3.
Turning to chain 1 N6Q, the screen value is 0.00501 average fractional NGS count over selection days 2 and 3 (reads of this peptide / all reads for the bait, averaged over ….
As for chain 1 N6M, the screen value was 0.000248 average fractional NGS count over selection days 2 and 3 (reads of this peptide / all reads for the bait, averaged over ….
On the same count and under the same terms, for chain 1 N6F the value was 0.000398 average fractional NGS count over selection days 2 and 3 (reads of this peptide / all reads for the bait, averaged over ….
As for chain 1 N6P, the screen value was 0.0105 average fractional NGS count over selection days 2 and 3 (reads of this peptide / all reads for the bait, averaged over ….
Turning to chain 1 N6E, the screen value is 0.00107 average fractional NGS count over selection days 2 and 3 (reads of this peptide / all reads for the bait, averaged over ….
Still for that read-out and setting: for chain 1 N6Y the value was 0.000368 average fractional NGS count over selection days 2 and 3 (reads of this peptide / all reads for the bait, averaged over ….
Still for that read-out and setting: for chain 1 N6A the value was 0.00273 average fractional NGS count over selection days 2 and 3 (reads of this peptide / all reads for the bait, averaged over ….

In a further test the parent is B2. The description is as above.
With chain 1 LADLIFTDSQLYIPLE [chain 1 K10Q], the screen value is 0.00103 average fractional NGS count over selection days 2 and 3 (reads of this peptide / all reads for the bait, averaged over ….
Still for that read-out and setting: for chain 1 LADLIFTDSTLYIPLE [chain 1 K10T] the value was 0.000653 average fractional NGS count over selection days 2 and 3 (reads of this peptide / all reads for the bait, averaged over …; for chain 1 LADLIFTDSGLYIPLE [chain 1 K10G], 0.000514 average fractional NGS count over selection days 2 and 3 (reads of this peptide / all reads for the bait, averaged over ….
Still for that read-out and setting: for chain 1 LADLIFTDSILYIPLE [chain 1 K10I] the value was 0.000133 average fractional NGS count over selection days 2 and 3 (reads of this peptide / all reads for the bait, averaged over …; for chain 1 LADLIFTDSSLYIPLE [chain 1 K10S], 0.000449 average fractional NGS count over selection days 2 and 3 (reads of this peptide / all reads for the bait, averaged over …; for chain 1 LADDIFTDSKLYIPLE [chain 1 L4D], 0.0012 average fractional NGS count over selection days 2 and 3 (reads of this peptide / all reads for the bait, averaged over ….
The same measure, in the same setting: for chain 1 LADEIFTDSKLYIPLE [chain 1 L4E] the value was 0.000131 average fractional NGS count over selection days 2 and 3 (reads of this peptide / all reads for the bait, averaged over ….
Consider chain 1 LADHIFTDSKLYIPLE [chain 1 L4H], for which the screen value was 0.000467 average fractional NGS count over selection days 2 and 3 (reads of this peptide / all reads for the bait, averaged over ….
On the same count and under the same terms, for chain 1 LADMIFTDSKLYIPLE [chain 1 L4M] the value was 0.000697 average fractional NGS count over selection days 2 and 3 (reads of this peptide / all reads for the bait, averaged over …; for chain 1 LADSIFTDSKLYIPLE [chain 1 L4S], 0.00023 average fractional NGS count over selection days 2 and 3 (reads of this peptide / all reads for the bait, averaged over …; for chain 1 LADLSFTDSKLYIPLE [chain 1 I5S], 0.000525 average fractional NGS count over selection days 2 and 3 (reads of this peptide / all reads for the bait, averaged over ….
Same read-out and setting: for chain 1 LADLWFTDSKLYIPLE [chain 1 I5W] the value was 0.00126 average fractional NGS count over selection days 2 and 3 (reads of this peptide / all reads for the bait, averaged over ….
Same read-out and setting: for chain 1 LADLVFTDSKLYIPLE [chain 1 I5V] the value was 0.000758 average fractional NGS count over selection days 2 and 3 (reads of this peptide / all reads for the bait, averaged over …; for chain 1 LADLEFTDSKLYIPLE [chain 1 I5E], 0.000204 average fractional NGS count over selection days 2 and 3 (reads of this peptide / all reads for the bait, averaged over ….
On to chain 1 LADLFFTDSKLYIPLE [chain 1 I5F], for which the screen value was 0.000696 average fractional NGS count over selection days 2 and 3 (reads of this peptide / all reads for the bait, averaged over ….
chain 1 LADLGFTDSKLYIPLE [chain 1 I5G]: the screen value was 0.000313 average fractional NGS count over selection days 2 and 3 (reads of this peptide / all reads for the bait, averaged over ….
On the same count and under the same terms, for chain 1 LADLHFTDSKLYIPLE [chain 1 I5H] the value was 0.000463 average fractional NGS count over selection days 2 and 3 (reads of this peptide / all reads for the bait, averaged over …; for chain 1 LADLAFTDSKLYIPLE [chain 1 I5A], 0.00216 average fractional NGS count over selection days 2 and 3 (reads of this peptide / all reads for the bait, averaged over ….
Still for that read-out and setting: for chain 1 LADLLFTDSKLYIPLE [chain 1 I5L] the value was 0.000706 average fractional NGS count over selection days 2 and 3 (reads of this peptide / all reads for the bait, averaged over ….
The same measure, in the same setting: for chain 1 LADLNFTDSKLYIPLE [chain 1 I5N] the value was 0.00116 average fractional NGS count over selection days 2 and 3 (reads of this peptide / all reads for the bait, averaged over ….
As to chain 1 LADLTFTDSKLYIPLE [chain 1 I5T], the screen value was 0.000326 average fractional NGS count over selection days 2 and 3 (reads of this peptide / all reads for the bait, averaged over ….
Same read-out and setting: for chain 1 LADLQFTDSKLYIPLE [chain 1 I5Q] the value was 0.000996 average fractional NGS count over selection days 2 and 3 (reads of this peptide / all reads for the bait, averaged over …; for chain 1 LADLIFQDSKLYIPLE [chain 1 T7Q], 0.000521 average fractional NGS count over selection days 2 and 3 (reads of this peptide / all reads for the bait, averaged over …; for chain 1 LADLIFVDSKLYIPLE [chain 1 T7V], 0.000833 average fractional NGS count over selection days 2 and 3 (reads of this peptide / all reads for the bait, averaged over ….
Still for that read-out and setting: for chain 1 LADLIFMDSKLYIPLE [chain 1 T7M] the value was 0.000146 average fractional NGS count over selection days 2 and 3 (reads of this peptide / all reads for the bait, averaged over ….
Still for that read-out and setting: for chain 1 LADLIFNDSKLYIPLE [chain 1 T7N] the value was 0.000232 average fractional NGS count over selection days 2 and 3 (reads of this peptide / all reads for the bait, averaged over …; for chain 1 LADLIFTDSKLYIWLE [chain 1 P14W], 0.000152 average fractional NGS count over selection days 2 and 3 (reads of this peptide / all reads for the bait, averaged over ….
For the variant chain 1 LADLIFTDSKLYKPLE [chain 1 I13K], the screen value was 0.0008 average fractional NGS count over selection days 2 and 3 (reads of this peptide / all reads for the bait, averaged over ….
Still for that read-out and setting: for chain 1 LADLIFTDSKLYEPLE [chain 1 I13E] the value was 0.000182 average fractional NGS count over selection days 2 and 3 (reads of this peptide / all reads for the bait, averaged over …; for chain 1 LADLIFTDSKLYIPRE [chain 1 L15R], 0.0012 average fractional NGS count over selection days 2 and 3 (reads of this peptide / all reads for the bait, averaged over ….
On to chain 1 LADLIFTDSKLYIPME [chain 1 L15M], for which the screen value was 0.00539 average fractional NGS count over selection days 2 and 3 (reads of this peptide / all reads for the bait, averaged over ….
Still for that read-out and setting: for chain 1 LADLIFTDSKLYIPAE [chain 1 L15A] the value was 0.000297 average fractional NGS count over selection days 2 and 3 (reads of this peptide / all reads for the bait, averaged over ….
On the same count and under the same terms, for chain 1 LADLIFTDSKLYIPIE [chain 1 L15I] the value was 0.00147 average fractional NGS count over selection days 2 and 3 (reads of this peptide / all reads for the bait, averaged over …; for chain 1 LADLIFTDSKLYIPSE [chain 1 L15S], 0.000436 average fractional NGS count over selection days 2 and 3 (reads of this peptide / all reads for the bait, averaged over …; for chain 1 LADLIFTDSKLYIPDE [chain 1 L15D], 0.000238 average fractional NGS count over selection days 2 and 3 (reads of this peptide / all reads for the bait, averaged over ….
On the same count and under the same terms, for chain 1 LADLIFTDSKLYIPGE [chain 1 L15G] the value was 0.000168 average fractional NGS count over selection days 2 and 3 (reads of this peptide / all reads for the bait, averaged over ….
Consider chain 1 LADLIFTDSKLYIPYE [chain 1 L15Y], for which the screen value was 0.00117 average fractional NGS count over selection days 2 and 3 (reads of this peptide / all reads for the bait, averaged over ….
The same measure, in the same setting: for chain 1 LADLIFTDSKLYIPLK [chain 1 E16K] the value was 0.000641 average fractional NGS count over selection days 2 and 3 (reads of this peptide / all reads for the bait, averaged over …; for chain 1 LADLIFTDSKLYIPLY [chain 1 E16Y], 0.00177 average fractional NGS count over selection days 2 and 3 (reads of this peptide / all reads for the bait, averaged over …; for chain 1 LADLIFTDSKLYIPLN [chain 1 E16N], 0.00152 average fractional NGS count over selection days 2 and 3 (reads of this peptide / all reads for the bait, averaged over ….
In the case of chain 1 LADLIFTDSKLYIPLT [chain 1 E16T], the screen value is 0.00391 average fractional NGS count over selection days 2 and 3 (reads of this peptide / all reads for the bait, averaged over ….
On the same count and under the same terms, for chain 1 LADLIFTDSKLYIPLW [chain 1 E16W] the value was 0.00358 average fractional NGS count over selection days 2 and 3 (reads of this peptide / all reads for the bait, averaged over …; for chain 1 LADLIFTDSKLYIPLD [chain 1 E16D], 0.00467 average fractional NGS count over selection days 2 and 3 (reads of this peptide / all reads for the bait, averaged over ….
Still for that read-out and setting: for chain 1 LADLIFTDSKLYIPLI [chain 1 E16I] the value was 0.000286 average fractional NGS count over selection days 2 and 3 (reads of this peptide / all reads for the bait, averaged over …; for chain 1 LADLIFTDSKLYIPLM [chain 1 E16M], 0.0125 average fractional NGS count over selection days 2 and 3 (reads of this peptide / all reads for the bait, averaged over ….
Still for that read-out and setting: for chain 1 LADLIFTDSKLYIPLP [chain 1 E16P] the value was 0.00113 average fractional NGS count over selection days 2 and 3 (reads of this peptide / all reads for the bait, averaged over …; for chain 1 LADLIFTQSKLYIPLE [chain 1 D8Q], 0.000205 average fractional NGS count over selection days 2 and 3 (reads of this peptide / all reads for the bait, averaged over ….
Take chain 1 LADLIFTESKLYIPLE [chain 1 D8E]: the screen value is 0.00151 average fractional NGS count over selection days 2 and 3 (reads of this peptide / all reads for the bait, averaged over ….
The same measure, in the same setting: for chain 1 LADLIFTTSKLYIPLE [chain 1 D8T] the value was 0.000557 average fractional NGS count over selection days 2 and 3 (reads of this peptide / all reads for the bait, averaged over …; for chain 1 LADLIFTDSKIYIPLE [chain 1 L11I], 0.00106 average fractional NGS count over selection days 2 and 3 (reads of this peptide / all reads for the bait, averaged over …; for chain 1 LQDLIFTDSKLYIPLE [chain 1 A2Q], 0.000351 average fractional NGS count over selection days 2 and 3 (reads of this peptide / all reads for the bait, averaged over ….
Consider chain 1 LMDLIFTDSKLYIPLE [chain 1 A2M], for which the screen value was 0.000697 average fractional NGS count over selection days 2 and 3 (reads of this peptide / all reads for the bait, averaged over ….
On the same count and under the same terms, for chain 1 LSDLIFTDSKLYIPLE [chain 1 A2S] the value was 0.000833 average fractional NGS count over selection days 2 and 3 (reads of this peptide / all reads for the bait, averaged over …; for chain 1 LYDLIFTDSKLYIPLE [chain 1 A2Y], 0.00133 average fractional NGS count over selection days 2 and 3 (reads of this peptide / all reads for the bait, averaged over …; for chain 1 LRDLIFTDSKLYIPLE [chain 1 A2R], 0.00121 average fractional NGS count over selection days 2 and 3 (reads of this peptide / all reads for the bait, averaged over ….
The same measure, in the same setting: for chain 1 LNDLIFTDSKLYIPLE [chain 1 A2N] the value was 0.000208 average fractional NGS count over selection days 2 and 3 (reads of this peptide / all reads for the bait, averaged over …; for chain 1 LAELIFTDSKLYIPLE [chain 1 D3E], 0.000596 average fractional NGS count over selection days 2 and 3 (reads of this peptide / all reads for the bait, averaged over ….
Still for that read-out and setting: for chain 1 LAQLIFTDSKLYIPLE [chain 1 D3Q] the value was 0.000216 average fractional NGS count over selection days 2 and 3 (reads of this peptide / all reads for the bait, averaged over ….
